# Columns and labels:
# [1] = molecular target: the molecule itself; assay: cross-linking; disulfide trapping by an engineered cysteine; 35S Cys-Met 20 min pulse, immunoprecipitated using HA-beads, non-reducing SDS-PAGE, autoradiography; control cells and ZDHHC6 KO cells
# [2] = molecular target: the molecule itself; assay: cross-linking; HeLa cells crosslinked 5 min at room temperature with 1mM BMOE, 1mM DSS or 0.025% glutaraldehyde; non-reducing SDS-PAGE, anti-CLIMP-63 blot
Protein,stoichiometry N [1],stoichiometry N [2]
"HA-CLIMP-63 V137C (natural protein, UniProt Q07065 1-602, looked up, Made to trap dimers through a disulfide bond; also called V137C CLIMP-63; V137C mutant; source: HeLa (control or ZDHHC6 KO), transfected 24 hours, total cell extracts or immunoprecipitated with HA-beads; not shown: HA, N-terminal, kept) MPSAKQRGSKGGHGAASPSEKGAHPSGGADDVAKKPPPAPQQPPPPPAPHPQQHPQQHPQNQAHGKGGHRGGGGGGGKSSSSSSASAAAAAAAASSSASCSRRLGRALNFLFYLALVAAAAFSGWCVHHVLEEVQQCRRSHQDFSRQREELGQGLQGVEQKVQSLQATFGTFESILRSSQHKQDLTEKAVKQGESEVSRISEVLQKLQNEILKDLSDGIHVVKDARERDFTSLENTVEERLTELTKSINDNIAIFTEVQKRSQKEINDMKAKVASLEESEGNKQDLKALKEAVKEIQTSAKSREWDMEALRSTLQTMESDIYTEVRELVSLKQEQQAFKEAADTERLALQALTEKLLRSEESVSRLPEEIRRLEEELRQLKSDSHGPKEDGGFRHSEAFEALQQKSQGLDSRLQHVEDGVLSMQVASARQTESLESLLSKSQEHEQRLAALQGRLEGLGSSEADQDGLASTVRSLGETQLVLYGDVEELKRSVGELPSTVESLQKVQEQVHTLLSQDQAQAARLPPQDFLDRLSSLDNLKASVSQVEADLKMLRTAVDSLVAYSVKIETNENNLESAKGLLDDLRNDLDRLFVKVEKIHEKV",2,–
"cytoskeleton-linking membrane protein 63 (CLIMP-63), endogenous (natural protein, human (endogenous in HeLa), UniProt Q07065 1-602, looked up, S-palmitoylation on Cys-100 in the majority (87%) of the cellular protein, CLIMP-63 (CKAP4), endogenous protein of HeLa cells; also called CKAP4; source: endogenous, HeLa cells (membrane fraction, total cell extracts, fixed cells)) MPSAKQRGSKGGHGAASPSEKGAHPSGGADDVAKKPPPAPQQPPPPPAPHPQQHPQQHPQNQAHGKGGHRGGGGGGGKSSSSSSASAAAAAAAASSSASCSRRLGRALNFLFYLALVAAAAFSGWCVHHVLEEVQQVRRSHQDFSRQREELGQGLQGVEQKVQSLQATFGTFESILRSSQHKQDLTEKAVKQGESEVSRISEVLQKLQNEILKDLSDGIHVVKDARERDFTSLENTVEERLTELTKSINDNIAIFTEVQKRSQKEINDMKAKVASLEESEGNKQDLKALKEAVKEIQTSAKSREWDMEALRSTLQTMESDIYTEVRELVSLKQEQQAFKEAADTERLALQALTEKLLRSEESVSRLPEEIRRLEEELRQLKSDSHGPKEDGGFRHSEAFEALQQKSQGLDSRLQHVEDGVLSMQVASARQTESLESLLSKSQEHEQRLAALQGRLEGLGSSEADQDGLASTVRSLGETQLVLYGDVEELKRSVGELPSTVESLQKVQEQVHTLLSQDQAQAARLPPQDFLDRLSSLDNLKASVSQVEADLKMLRTAVDSLVAYSVKIETNENNLESAKGLLDDLRNDLDRLFVKVEKIHEKV",–,2

# Source: article doi:10.1101/431106, “The architecture of the endoplasmic reticulum is regulated by the reversible lipid modification of the shaping protein CLIMP-63” (bioRxiv, 2018)
